Here are results for 1 protein from the supplement of paper PMC10567573.

The nature of the data set: protein stability index of a GFP-peptide fusion (GPS, HEK-293T) (PSI 1-6); higher = more stable. Particulars: parent: NP_006221.1; c terminus: native.
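Also: lentivirally expressed fusion library, cells FACS-sorted into six equal-sized GFP/DsRed ratio bins, PSI computed from sequencing read fractions per bin weighted by bin number.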

B1: POLD2 addRQ (peptide)
chain: CQPISFSGFGAEDDDLGGLGLGPRQ
Regarding B1, the protein stability index came to 4.81.
